Reference: patent JP2018153172A (dated 2018)
Substitutions are numbered along the chain they refer to. Blank lines part the entries; values can stand above or below the binder they belong to.

Target: T1, 可溶性ヒトgp130受容体 (soluble human gp130 receptor, extracellular region of SEQ ID NO 1 with six histidines) (human, UniProt P40189 23-619)
T1 construct: Secreted from CHO DG44 cells and purified on HisTrap; no cleavage site is stated; also called 可溶性ヒトgp130受容体タンパク質; ヒト可溶性gp130受容体
T1 sequence: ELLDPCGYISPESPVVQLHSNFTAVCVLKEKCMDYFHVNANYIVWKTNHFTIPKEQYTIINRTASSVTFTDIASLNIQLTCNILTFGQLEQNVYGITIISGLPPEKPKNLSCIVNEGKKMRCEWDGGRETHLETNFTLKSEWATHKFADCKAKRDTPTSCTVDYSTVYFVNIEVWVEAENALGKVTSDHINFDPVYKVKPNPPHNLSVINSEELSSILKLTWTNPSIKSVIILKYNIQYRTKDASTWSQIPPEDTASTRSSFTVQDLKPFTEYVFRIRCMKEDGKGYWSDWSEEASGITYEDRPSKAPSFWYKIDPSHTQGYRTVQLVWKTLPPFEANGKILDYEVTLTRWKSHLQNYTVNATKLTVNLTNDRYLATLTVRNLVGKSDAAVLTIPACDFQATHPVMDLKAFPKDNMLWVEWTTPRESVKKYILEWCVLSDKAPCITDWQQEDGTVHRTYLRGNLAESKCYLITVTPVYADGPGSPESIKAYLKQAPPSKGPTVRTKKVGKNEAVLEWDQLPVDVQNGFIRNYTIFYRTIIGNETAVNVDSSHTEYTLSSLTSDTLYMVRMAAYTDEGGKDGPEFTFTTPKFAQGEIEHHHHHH
Assay: ELISA, immobilised soluble human gp130, COS1 supernatant, anti-human antibody-HRP

B1: ヒト化抗体A AH4−AL7 (antibody, V domains shown)
VH: QVQLVQSGAEVKKPGSSVKVSCKASGYTFTDYNMDWVRQAPGQGLEWMGDINSHSGGIIYNQKFKDRVTITADESTSTAYMELSSLRSEDTAVYYCARTYYVYGHFFDYWGQGTLVTVSS
VL: DIQMTQSPSTLSASIGDRVTITCNVSSSVTSMYWFQQRPGQAPKVLIYLTSNLASGVPSRFSGSGSGTDFTFTISSLQPEDIATYYCQQWSTNPLTFGGGTKVDIK
notes: VH on human IgG1 constant region (pFUSEss-CHIg-hG1), VL on human kappa constant region (pFUSE2ss-CLIg-hk); also called AH4-AL7
binding result: binds

B2: ヒト化抗体A AH3−AL6 (antibody, V domains shown)
VH: B1 VH with S16A, M48I, R67K, V68A, I70M, A72V, E74T, S77N
VL: EIVLTQSPATLSLSPGERATLSCNVSSSVTSMYWYQQKPGQAPRLLIYLTSNLASGIPDRFSGSGSGTDFTLTISRLEPEDFAVYYCQQWSTNPLTFGQGTKVEIK
notes: VH on human IgG1 constant region (pFUSEss-CHIg-hG1), VL on human kappa constant region (pFUSE2ss-CLIg-hk); also called AH3-AL6
binding result: binds

B3: ヒト化抗体A AH2−AL7 (antibody, V domains shown)
VH: QVQLQQPGAELVQPGTSVRLSCKASGYTFTDYNMDWVKQRPGQGLEWIGDINSHSGGIIYNQKFKDKATLTVDKSSSTAYMQLSSLTSEDSAVYYCTRTYYVYGHFFDYWGQGTLVTVSA
VL: B1 VL
notes: VH on human IgG1 constant region (pFUSEss-CHIg-hG1), VL on human kappa constant region (pFUSE2ss-CLIg-hk); also called AH2-AL7
binding result: binds

B4: ヒト化抗体A AH3−AL2 (antibody, V domains shown)
VH: B1 VH with S16A, M48I, R67K, V68A, I70M, A72V, E74T, S77N
VL: DIQMTQSPSSLSASVGDRVTITCNVSSSVTSMYWYQQKQGKSPQLLVYLTSNLASGVPSRFSGSGSGTQFSLKINNLQPEDFGSYYCQQWSTNPLTFGAGTKLDLK
notes: VH on human IgG1 constant region (pFUSEss-CHIg-hG1), VL on human kappa constant region (pFUSE2ss-CLIg-hk); also called AH3-AL2
binding result: binds

B5: ヒト化抗体A AH5−AL1 (antibody, V domains shown)
VH: B1 VH with Q1E, A9P, V11L, S16A, R38K, A40R, M48I, S84T, R87T, T117S
VL: DIQMTQSPSSLSASVGDRVTITCNVSSSVTSMYWYQQKPGKAPKLLIYLTSNLASGVPARFSGSGSGTEFTLTISSLQPDDFATYYCQQWSTNPLTFGAGTKLDLK
notes: VH on human IgG1 constant region (pFUSEss-CHIg-hG1), VL on human kappa constant region (pFUSE2ss-CLIg-hk); also called AH5-AL1
binding result: binds

B6: ヒト化抗体A AH3−AL1 (antibody, V domains shown)
VH: B1 VH with S16A, M48I, R67K, V68A, I70M, A72V, E74T, S77N
VL: B5 VL
notes: VH on human IgG1 constant region (pFUSEss-CHIg-hG1), VL on human kappa constant region (pFUSE2ss-CLIg-hk); also called AH3-AL1
binding result: binds

B13: ヒト化抗体A AH6−AL7 (antibody, V domains shown)
VH: B1 VH with S16A, M48I, S84T, R87T, L115T
VL: B1 VL
notes: VH on human IgG1 constant region (pFUSEss-CHIg-hG1), VL on human kappa constant region (pFUSE2ss-CLIg-hk); also called AH6-AL7
binding result: binds

B18: ヒト化抗体A AH3−AL4 (antibody, V domains shown)
VH: B1 VH with S16A, M48I, R67K, V68A, I70M, A72V, E74T, S77N
VL: DIQMTQSPSSLSASVGDRVTITCNVSSSVTSMYWYQQKQGKSPQLLVYLTSNLASGVPSRFSGSGSGTDFTLTISSLQPEDFATYYCQQWSTNPLTFGQGTKVEIK
notes: VH on human IgG1 constant region (pFUSEss-CHIg-hG1), VL on human kappa constant region (pFUSE2ss-CLIg-hk); also called AH3-AL4
binding result: binds

B19: ヒト化抗体A AH7−AL1 (antibody, V domains shown)
VH: EVQLVQSGAEVKKPGATVKISCKASGYTFTDYNMDWVRQAPGQGLEWIGDINSHSGGIIYNQKFKDWVTMTRDTSINTAYMELRLRSDDTAVYYCARTYYVYGHFFDYWGQGTLVTVSA
VL: B5 VL
notes: VH on human IgG1 constant region (pFUSEss-CHIg-hG1), VL on human kappa constant region (pFUSE2ss-CLIg-hk); also called AH7-AL1
binding result: binds

B20: ヒト化抗体A AH7−AL3 (antibody, V domains shown)
VH: B19 VH
VL: B5 VL with S10T, A99Q, L103V, D104E, L105V
notes: VH on human IgG1 constant region (pFUSEss-CHIg-hG1), VL on human kappa constant region (pFUSE2ss-CLIg-hk); also called AH7-AL3
binding result: binds

B21: ヒト化抗体A AH2−AL2 (antibody, V domains shown)
VH: B3 VH
VL: B4 VL
notes: VH on human IgG1 constant region (pFUSEss-CHIg-hG1), VL on human kappa constant region (pFUSE2ss-CLIg-hk); also called AH2-AL2
binding result: binds

B22: ヒト化抗体A AH2−AL8 (antibody, V domains shown)
VH: B3 VH
VL: ELVLTQSPGTLSLSAGERATLSCNVSSSVTSMYWYQQKPGKAPKLLIYLTSNLASGAPSRFSGSGSGTDFTLTISSLQPDDFATYYCQQWSTNPLTFGGGTKLEIK
notes: VH on human IgG1 constant region (pFUSEss-CHIg-hG1), VL on human kappa constant region (pFUSE2ss-CLIg-hk); also called AH2-AL8
binding result: binds

The remaining lines, values ahead:

binding result: binds
B7: ヒト化抗体A AH1−AL7 (antibody, V domains shown)
VH: B1 VH with Q1E, M48I, R67K, V68A, S77N, L115T, V116L
VL: B1 VL
notes: VH on human IgG1 constant region (pFUSEss-CHIg-hG1), VL on human kappa constant region (pFUSE2ss-CLIg-hk); also called AH1-AL7

binding result: binds
B8: ヒト化抗体A AH8−AL1 (antibody, V domains shown)
VH: B1 VH with Q1E, S16A, Q43K, M48V, E74R, A79V, S85G, Q112K
VL: B5 VL
notes: VH on human IgG1 constant region (pFUSEss-CHIg-hG1), VL on human kappa constant region (pFUSE2ss-CLIg-hk); also called AH8-AL1

binding result: binds
B9: ヒト化抗体A AH8−AL7 (antibody, V domains shown)
VH: B1 VH with Q1E, S16A, Q43K, M48V, E74R, A79V, S85G, Q112K
VL: B1 VL
notes: VH on human IgG1 constant region (pFUSEss-CHIg-hG1), VL on human kappa constant region (pFUSE2ss-CLIg-hk); also called AH8-AL7

binding result: binds
B10: ヒト化抗体A AH5−AL7 (antibody, V domains shown)
VH: B1 VH with Q1E, A9P, V11L, S16A, R38K, A40R, M48I, S84T, R87T, T117S
VL: B1 VL
notes: VH on human IgG1 constant region (pFUSEss-CHIg-hG1), VL on human kappa constant region (pFUSE2ss-CLIg-hk); also called AH5-AL7

binding result: binds
B11: ヒト化抗体A AH5−AL4 (antibody, V domains shown)
VH: B1 VH with Q1E, A9P, V11L, S16A, R38K, A40R, M48I, S84T, R87T, T117S
VL: B18 VL
notes: VH on human IgG1 constant region (pFUSEss-CHIg-hG1), VL on human kappa constant region (pFUSE2ss-CLIg-hk); also called AH5-AL4

binding result: binds
B12: ヒト化抗体A AH3−AL7 (antibody, V domains shown)
VH: B1 VH with S16A, M48I, R67K, V68A, I70M, A72V, E74T, S77N
VL: B1 VL
notes: VH on human IgG1 constant region (pFUSEss-CHIg-hG1), VL on human kappa constant region (pFUSE2ss-CLIg-hk); also called AH3-AL7

binding result: binds
B14: ヒト化抗体A AH5−AL5 (antibody, V domains shown)
VH: B1 VH with Q1E, A9P, V11L, S16A, R38K, A40R, M48I, S84T, R87T, T117S
VL: B5 VL with S9A, D17E, R18T
notes: VH on human IgG1 constant region (pFUSEss-CHIg-hG1), VL on human kappa constant region (pFUSE2ss-CLIg-hk); also called AH5-AL5

binding result: binds
B15: ヒト化抗体A AH5−AL3 (antibody, V domains shown)
VH: B1 VH with Q1E, A9P, V11L, S16A, R38K, A40R, M48I, S84T, R87T, T117S
VL: B5 VL with S10T, A99Q, L103V, D104E, L105V
notes: VH on human IgG1 constant region (pFUSEss-CHIg-hG1), VL on human kappa constant region (pFUSE2ss-CLIg-hk); also called AH5-AL3

binding result: binds
B16: ヒト化抗体A AH3−AL5 (antibody, V domains shown)
VH: B1 VH with S16A, M48I, R67K, V68A, I70M, A72V, E74T, S77N
VL: B5 VL with S9A, D17E, R18T
notes: VH on human IgG1 constant region (pFUSEss-CHIg-hG1), VL on human kappa constant region (pFUSE2ss-CLIg-hk); also called AH3-AL5

binding result: binds
B17: ヒト化抗体A AH3−AL3 (antibody, V domains shown)
VH: B1 VH with S16A, M48I, R67K, V68A, I70M, A72V, E74T, S77N
VL: B5 VL with S10T, A99Q, L103V, D104E, L105V
notes: VH on human IgG1 constant region (pFUSEss-CHIg-hG1), VL on human kappa constant region (pFUSE2ss-CLIg-hk); also called AH3-AL3

binding result: binds
B23: ヒト化抗体A AH2−AL6 (antibody, V domains shown)
VH: B3 VH
VL: B2 VL
notes: VH on human IgG1 constant region (pFUSEss-CHIg-hG1), VL on human kappa constant region (pFUSE2ss-CLIg-hk); also called AH2-AL6
